The values that follow come from patent publication US20140087995A1 (published 2014).

Substitutions are numbered along the chain they refer to. Numbered stars: 1 amine (or outer) side, 2 acyl side, 3 side chain; on linkers, the order of the positions; unused ones are H or OH. Bridge positions count the residues as written; N and C are the ends. * marks the point of attachment. C20 diacid = O=C(O)CCCCCCCCCCCCCCCCCCC(=O)*; γGlu = O=C(O)[C@H](CCC(=O)[*:2])N[*:1]; AEEA = NCCOCCOCC(=O)O

Assay [1] deals with T1, human amylin receptor (amylin 3(a) receptor: human calcitonin receptor with RAMP-3) (human, UniProt P30988 25-474; O60896 24-148).
T1 sequence (looked up) 1: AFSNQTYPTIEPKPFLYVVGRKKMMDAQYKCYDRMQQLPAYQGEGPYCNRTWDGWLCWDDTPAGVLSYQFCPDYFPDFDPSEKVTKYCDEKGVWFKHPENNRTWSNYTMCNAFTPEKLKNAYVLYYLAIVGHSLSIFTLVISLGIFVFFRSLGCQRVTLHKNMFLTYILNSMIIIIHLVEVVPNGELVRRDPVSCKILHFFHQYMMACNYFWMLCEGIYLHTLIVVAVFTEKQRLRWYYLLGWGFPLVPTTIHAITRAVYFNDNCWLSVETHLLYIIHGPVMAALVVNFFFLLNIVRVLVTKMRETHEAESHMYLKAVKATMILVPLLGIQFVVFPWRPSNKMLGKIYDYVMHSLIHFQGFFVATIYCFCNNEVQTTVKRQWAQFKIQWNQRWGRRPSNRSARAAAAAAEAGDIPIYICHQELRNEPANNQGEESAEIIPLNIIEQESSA
T1 sequence (looked up) 2: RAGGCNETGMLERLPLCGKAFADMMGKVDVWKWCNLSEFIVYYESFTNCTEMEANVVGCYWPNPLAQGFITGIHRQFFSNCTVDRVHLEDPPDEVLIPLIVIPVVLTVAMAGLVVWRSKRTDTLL
The experiment in a line: cell-based or functional assay.

Assay [2] addresses T2, human calcitonin receptor (human, UniProt P30988 25-474).
T2 sequence (looked up): T1 sequence (looked up) 1
The experiment in a line: cell-based or functional assay.

B1: N^α1-[2-[2-[2-[[2-[2-[2-[[(4S)-4-carboxy-4-(19-carboxynonadecanoylamino)butanoyl]amino]ethoxy]ethoxy]acetyl]amino]ethoxy]ethoxy]acetyl]-[Glu14,Arg17,Pro21,Pro27 … (peptide)
peptide: {C20 diacid-γGlu-AEEA-AEEA}-KCNTATCATQRLAEFLRHSSPNFGAIPSSTNVGSNTP-NH2
modifications: disulfide 2-7
SMILES: CC[C@H](C)[C@H](NC(=O)[C@H](C)NC(=O)CNC(=O)[C@H](Cc1ccccc1)NC(=O)[C@H](CC(N)=O)NC(=O)[C@@H]1CCCN1C(=O)[C@H](CO)NC(=O)[C@H](CO)NC(=O)[C@H](Cc1c[nH]cn1)NC(=O)[C@H](CCCNC(=N)N)NC(=O)[C@H](CC(C)C)NC(=O)[C@H](Cc1ccccc1)NC(=O)[C@H](CCC(=O)O)NC(=O)[C@H](C)NC(=O)[C@H](CC(C)C)NC(=O)[C@H](CCCNC(=N)N)NC(=O)[C@H](CCC(N)=O)NC(=O)[C@@H](NC(=O)[C@H](C)NC(=O)[C@@H]1CSSC[C@H](NC(=O)[C@H](CCCCN)NC(=O)COCCOCCNC(=O)COCCOCCNC(=O)CC[C@H](NC(=O)CCCCCCCCCCCCCCCCCCC(=O)O)C(=O)O)C(=O)N[C@@H](CC(N)=O)C(=O)N[C@@H]([C@@H](C)O)C(=O)N[C@@H](C)C(=O)N[C@@H]([C@@H](C)O)C(=O)N1)[C@@H](C)O)C(=O)N1CCC[C@H]1C(=O)N[C@@H](CO)C(=O)N[C@@H](CO)C(=O)N[C@H](C(=O)N[C@@H](CC(N)=O)C(=O)N[C@H](C(=O)NCC(=O)N[C@@H](CO)C(=O)N[C@@H](CC(N)=O)C(=O)N[C@H](C(=O)N1CCC[C@H]1C(N)=O)[C@@H](C)O)C(C)C)[C@@H](C)O
notes: also called compound 20
Regarding B1, the “hAmylin-R funct. EC50” value in assay [1] worked out at 0.08 nM. In addition, in assay [2], the “Ratio hCT/hAmylin funct.” value turned out to be 3.6 and the “hCTR funct. EC50” value turned out to be 0.285 nM.

B2: N^α1-[(4S)-4-carboxy-4-(19-carboxynonadecanoylamino)butanoyl]-[Arg17,Pro21,Pro27,Pro34,Glu35]-h-amylin (peptide)
peptide: {C20 diacid-γGlu}-KCNTATCATQRLANFLRHSSPNFGAIPSSTNVGPETY-NH2
modifications: disulfide 2-7
SMILES: CC[C@H](C)[C@H](NC(=O)[C@H](C)NC(=O)CNC(=O)[C@H](Cc1ccccc1)NC(=O)[C@H](CC(N)=O)NC(=O)[C@@H]1CCCN1C(=O)[C@H](CO)NC(=O)[C@H](CO)NC(=O)[C@H](Cc1c[nH]cn1)NC(=O)[C@H](CCCNC(=N)N)NC(=O)[C@H](CC(C)C)NC(=O)[C@H](Cc1ccccc1)NC(=O)[C@H](CC(N)=O)NC(=O)[C@H](C)NC(=O)[C@H](CC(C)C)NC(=O)[C@H](CCCNC(=N)N)NC(=O)[C@H](CCC(N)=O)NC(=O)[C@@H](NC(=O)[C@H](C)NC(=O)[C@@H]1CSSC[C@H](NC(=O)[C@H](CCCCN)NC(=O)CC[C@H](NC(=O)CCCCCCCCCCCCCCCCCCC(=O)O)C(=O)O)C(=O)N[C@@H](CC(N)=O)C(=O)N[C@@H]([C@@H](C)O)C(=O)N[C@@H](C)C(=O)N[C@@H]([C@@H](C)O)C(=O)N1)[C@@H](C)O)C(=O)N1CCC[C@H]1C(=O)N[C@@H](CO)C(=O)N[C@@H](CO)C(=O)N[C@H](C(=O)N[C@@H](CC(N)=O)C(=O)N[C@H](C(=O)NCC(=O)N1CCC[C@H]1C(=O)N[C@@H](CCC(=O)O)C(=O)N[C@H](C(=O)N[C@@H](Cc1ccc(O)cc1)C(N)=O)[C@@H](C)O)C(C)C)[C@@H](C)O
notes: also called compound 29
As to B2, in assay [1], the “hAmylin-R funct. EC50” value amounted to 0.099 nM. Moreover, in assay [2], the “Ratio hCT/hAmylin funct.” value came out at 8.7 and the “hCTR funct. EC50” value is 0.857 nM.

B3: N^α1-[(4S)-4-carboxy-4-(19-carboxynonadecanoylamino)butanoyl]-[Arg17,Pro21,Pro27,Lys35]-h-amylin (peptide)
peptide: KCNTATCATQRLANFLRHSSPNFGAIPSSTNVGSKTY
modifications: C20 diacid-gGlu on the alpha amino group of the N-terminal residue; disulfide bridge Cys2-Cys7; C-terminal amide
notes: also called compound 34
Take B3: in assay [1], the “hAmylin-R funct. EC50” value was found to be 0.313 nM. Further, in assay [2], the “Ratio hCT/hAmylin funct.” value is 8.4 and the “hCTR funct. EC50” value worked out at 2.62 nM.

B4: N^α1-[(4S)-4-carboxy-4-(19-carboxynonadecanoylamino)butanoyl]-[Asp14,Arg17,Pro21,Pro27,Pro37]-h-amylin (peptide)
peptide: {C20 diacid-γGlu}-KCNTATCATQRLADFLRHSSPNFGAIPSSTNVGSNTP-NH2
modifications: disulfide 2-7
SMILES: CC[C@H](C)[C@H](NC(=O)[C@H](C)NC(=O)CNC(=O)[C@H](Cc1ccccc1)NC(=O)[C@H](CC(N)=O)NC(=O)[C@@H]1CCCN1C(=O)[C@H](CO)NC(=O)[C@H](CO)NC(=O)[C@H](Cc1c[nH]cn1)NC(=O)[C@H](CCCNC(=N)N)NC(=O)[C@H](CC(C)C)NC(=O)[C@H](Cc1ccccc1)NC(=O)[C@H](CC(=O)O)NC(=O)[C@H](C)NC(=O)[C@H](CC(C)C)NC(=O)[C@H](CCCNC(=N)N)NC(=O)[C@H](CCC(N)=O)NC(=O)[C@@H](NC(=O)[C@H](C)NC(=O)[C@@H]1CSSC[C@H](NC(=O)[C@H](CCCCN)NC(=O)CC[C@H](NC(=O)CCCCCCCCCCCCCCCCCCC(=O)O)C(=O)O)C(=O)N[C@@H](CC(N)=O)C(=O)N[C@@H]([C@@H](C)O)C(=O)N[C@@H](C)C(=O)N[C@@H]([C@@H](C)O)C(=O)N1)[C@@H](C)O)C(=O)N1CCC[C@H]1C(=O)N[C@@H](CO)C(=O)N[C@@H](CO)C(=O)N[C@H](C(=O)N[C@@H](CC(N)=O)C(=O)N[C@H](C(=O)NCC(=O)N[C@@H](CO)C(=O)N[C@@H](CC(N)=O)C(=O)N[C@H](C(=O)N1CCC[C@H]1C(N)=O)[C@@H](C)O)C(C)C)[C@@H](C)O
notes: also called compound 10
Take B4: the “hAmylin-R funct. EC50” value in assay [1] was found to be 0.072 nM. In addition, in assay [2], the “Ratio hCT/hAmylin funct.” value was determined as 1 and the “hCTR funct. EC50” value stood at 0.07 nM.

B5: N^α1-[(4S)-4-carboxy-4-(19-carboxynonadecanoylamino)butanoyl]-[Arg17,Pro21,Pro27,Glu35]-h-amylin (peptide)
peptide: B3 peptide with K35E
modifications: C20 diacid-gGlu on the alpha amino group of the N-terminal residue; disulfide bridge Cys2-Cys7; C-terminal amide
notes: also called compound 23
Turning to B5, the “hAmylin-R funct. EC50” value in assay [1] was 0.34 nM. For the same molecule, in assay [2], the “Ratio hCT/hAmylin funct.” value was 8.9 and the “hCTR funct. EC50” value turned out to be 3.02 nM.

B6: N^α1-[(4S)-4-carboxy-4-(19-carboxynonadecanoylamino)butanoyl]-[Glu14,Arg17,Pro21,Pro27,Arg35]-h-amylin (peptide)
peptide: {C20 diacid-γGlu}-KCNTATCATQRLAEFLRHSSPNFGAIPSSTNVGSRTY-NH2
modifications: disulfide 2-7
SMILES: CC[C@H](C)[C@H](NC(=O)[C@H](C)NC(=O)CNC(=O)[C@H](Cc1ccccc1)NC(=O)[C@H](CC(N)=O)NC(=O)[C@@H]1CCCN1C(=O)[C@H](CO)NC(=O)[C@H](CO)NC(=O)[C@H](Cc1c[nH]cn1)NC(=O)[C@H](CCCNC(=N)N)NC(=O)[C@H](CC(C)C)NC(=O)[C@H](Cc1ccccc1)NC(=O)[C@H](CCC(=O)O)NC(=O)[C@H](C)NC(=O)[C@H](CC(C)C)NC(=O)[C@H](CCCNC(=N)N)NC(=O)[C@H](CCC(N)=O)NC(=O)[C@@H](NC(=O)[C@H](C)NC(=O)[C@@H]1CSSC[C@H](NC(=O)[C@H](CCCCN)NC(=O)CC[C@H](NC(=O)CCCCCCCCCCCCCCCCCCC(=O)O)C(=O)O)C(=O)N[C@@H](CC(N)=O)C(=O)N[C@@H]([C@@H](C)O)C(=O)N[C@@H](C)C(=O)N[C@@H]([C@@H](C)O)C(=O)N1)[C@@H](C)O)C(=O)N1CCC[C@H]1C(=O)N[C@@H](CO)C(=O)N[C@@H](CO)C(=O)N[C@H](C(=O)N[C@@H](CC(N)=O)C(=O)N[C@H](C(=O)NCC(=O)N[C@@H](CO)C(=O)N[C@@H](CCCNC(=N)N)C(=O)N[C@H](C(=O)N[C@@H](Cc1ccc(O)cc1)C(N)=O)[C@@H](C)O)C(C)C)[C@@H](C)O
notes: also called compound 16
In the case of B6, the “hAmylin-R funct. EC50” value in assay [1] amounted to 0.363 nM. Further, in assay [2], the “Ratio hCT/hAmylin funct.” value is 6.1 and the “hCTR funct. EC50” value is 2.21 nM.

B7: N^α1-[(4S)-4-carboxy-4-(19-carboxynonadecanoylamino)butanoyl]-[Arg17,Pro21,Pro27,Pro31,Glu35]-h-amylin (peptide)
peptide: {C20 diacid-γGlu}-KCNTATCATQRLANFLRHSSPNFGAIPSSTPVGSETY-NH2
modifications: disulfide 2-7
SMILES: CC[C@H](C)[C@H](NC(=O)[C@H](C)NC(=O)CNC(=O)[C@H](Cc1ccccc1)NC(=O)[C@H](CC(N)=O)NC(=O)[C@@H]1CCCN1C(=O)[C@H](CO)NC(=O)[C@H](CO)NC(=O)[C@H](Cc1c[nH]cn1)NC(=O)[C@H](CCCNC(=N)N)NC(=O)[C@H](CC(C)C)NC(=O)[C@H](Cc1ccccc1)NC(=O)[C@H](CC(N)=O)NC(=O)[C@H](C)NC(=O)[C@H](CC(C)C)NC(=O)[C@H](CCCNC(=N)N)NC(=O)[C@H](CCC(N)=O)NC(=O)[C@@H](NC(=O)[C@H](C)NC(=O)[C@@H]1CSSC[C@H](NC(=O)[C@H](CCCCN)NC(=O)CC[C@H](NC(=O)CCCCCCCCCCCCCCCCCCC(=O)O)C(=O)O)C(=O)N[C@@H](CC(N)=O)C(=O)N[C@@H]([C@@H](C)O)C(=O)N[C@@H](C)C(=O)N[C@@H]([C@@H](C)O)C(=O)N1)[C@@H](C)O)C(=O)N1CCC[C@H]1C(=O)N[C@@H](CO)C(=O)N[C@@H](CO)C(=O)N[C@H](C(=O)N1CCC[C@H]1C(=O)N[C@H](C(=O)NCC(=O)N[C@@H](CO)C(=O)N[C@@H](CCC(=O)O)C(=O)N[C@H](C(=O)N[C@@H](Cc1ccc(O)cc1)C(N)=O)[C@@H](C)O)C(C)C)[C@@H](C)O
notes: also called compound 28
Turning to B7, the “hAmylin-R funct. EC50” value in assay [1] was 0.22 nM. In assay [2], the “Ratio hCT/hAmylin funct.” value was 9.2 and the “hCTR funct. EC50” value amounted to 2.03 nM.
